Here are results for one molecule from article PMC4159138, “Fission Yeast Pxd1 Promotes Proper DNA Repair by Activating Rad16^XPF and Inhibiting Dna2” (PLoS Biology, 2014).

One data set concerns the target Dna2;Cdc24-YFH (Schizosaccharomyces …, UniProt Q9URU2;O75004 1-1397;1-501, |). Kind of data set: EMSA; 1 mM EDTA, no divalent cations; 100-300 ng Dna2-Cdc24; 50 mM Tris-HCl pH 7.5, 1 mM EDTA, 1 mM DTT, 0.1 mg/ml BSA, 50 mM NaCl, 5% glycerol, 15 fmol DNA in 10 µl, room temperature 30 min; 5% PAGE in 1x TBE. The note with it: protein: native;native; tags: none stated (co-expressed with Cdc24-YFH);YFP-FLAG-His6; copies: 1;1; label: 5' 32P on oligo461; 18 bp duplex with 5' overhang 31 nt on oligo461.

A further data set addresses Dna2;Cdc24-YFH;RPA (Schizosaccharomyces …, UniProt Q9URU2;O75004;Q92372;Q92373;Q92374 1-1397;1-501;1-609;1-279;1-104, ||). Kind of data set: EMSA; 1 mM EDTA; supershifted higher-order complex, no Pxd1; 50 mM Tris-HCl pH 7.5, 1 mM EDTA, 1 mM DTT, 0.1 mg/ml BSA, 50 mM NaCl, 5% glycerol, 15 fmol DNA in 10 µl, room temperature 30 min; 5% PAGE in 1x TBE. The note with it: protein: native;native;recombinant; tags: none stated (co-expressed with Cdc24-YFH);YFP-FLAG-His6;6xHis-GST on Rpa1 in plasmid pDB2129; copies: 1;1;1;1;1; label: 5' 32P on oligo461; 18 bp duplex with 5' overhang 31 nt on oligo461.

Dna2;Cdc24-YFH, sequence (Q9URU2 whole entry, chain 1 of 2): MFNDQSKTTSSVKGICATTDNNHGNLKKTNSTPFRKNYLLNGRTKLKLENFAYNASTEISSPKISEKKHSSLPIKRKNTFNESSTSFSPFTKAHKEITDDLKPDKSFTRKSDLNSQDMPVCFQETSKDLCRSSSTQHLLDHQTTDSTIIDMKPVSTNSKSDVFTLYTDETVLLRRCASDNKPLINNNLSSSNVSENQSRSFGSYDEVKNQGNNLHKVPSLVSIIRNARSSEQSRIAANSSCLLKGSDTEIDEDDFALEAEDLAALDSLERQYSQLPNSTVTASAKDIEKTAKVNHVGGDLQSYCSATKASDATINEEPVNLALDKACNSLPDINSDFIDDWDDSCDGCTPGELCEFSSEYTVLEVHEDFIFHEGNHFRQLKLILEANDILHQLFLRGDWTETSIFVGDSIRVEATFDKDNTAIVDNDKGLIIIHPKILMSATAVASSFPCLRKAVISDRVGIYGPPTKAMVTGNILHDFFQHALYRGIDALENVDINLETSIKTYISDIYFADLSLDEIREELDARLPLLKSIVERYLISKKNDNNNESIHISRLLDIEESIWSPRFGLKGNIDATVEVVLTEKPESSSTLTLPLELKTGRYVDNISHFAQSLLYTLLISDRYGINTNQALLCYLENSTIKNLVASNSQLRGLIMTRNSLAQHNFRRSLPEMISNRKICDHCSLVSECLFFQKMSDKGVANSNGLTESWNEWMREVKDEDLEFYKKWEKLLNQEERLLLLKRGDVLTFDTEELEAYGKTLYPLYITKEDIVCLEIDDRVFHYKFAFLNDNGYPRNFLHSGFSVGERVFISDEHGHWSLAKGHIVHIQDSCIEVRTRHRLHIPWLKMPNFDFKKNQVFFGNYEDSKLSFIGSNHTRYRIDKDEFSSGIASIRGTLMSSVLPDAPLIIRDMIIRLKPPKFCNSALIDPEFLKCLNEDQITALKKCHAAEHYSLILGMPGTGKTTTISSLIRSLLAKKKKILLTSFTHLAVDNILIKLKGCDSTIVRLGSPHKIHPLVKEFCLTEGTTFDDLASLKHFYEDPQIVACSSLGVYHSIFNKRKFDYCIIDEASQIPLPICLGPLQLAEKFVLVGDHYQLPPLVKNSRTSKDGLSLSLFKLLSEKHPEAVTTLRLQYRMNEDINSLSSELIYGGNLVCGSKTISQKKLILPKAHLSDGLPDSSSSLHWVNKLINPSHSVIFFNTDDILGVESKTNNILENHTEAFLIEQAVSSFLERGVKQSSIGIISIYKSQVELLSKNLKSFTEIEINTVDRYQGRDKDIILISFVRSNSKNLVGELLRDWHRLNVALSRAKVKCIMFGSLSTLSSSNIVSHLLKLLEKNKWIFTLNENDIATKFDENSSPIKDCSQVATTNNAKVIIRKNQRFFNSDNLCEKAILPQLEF
Dna2;Cdc24-YFH, sequence (O75004 whole entry, chain 2 of 2): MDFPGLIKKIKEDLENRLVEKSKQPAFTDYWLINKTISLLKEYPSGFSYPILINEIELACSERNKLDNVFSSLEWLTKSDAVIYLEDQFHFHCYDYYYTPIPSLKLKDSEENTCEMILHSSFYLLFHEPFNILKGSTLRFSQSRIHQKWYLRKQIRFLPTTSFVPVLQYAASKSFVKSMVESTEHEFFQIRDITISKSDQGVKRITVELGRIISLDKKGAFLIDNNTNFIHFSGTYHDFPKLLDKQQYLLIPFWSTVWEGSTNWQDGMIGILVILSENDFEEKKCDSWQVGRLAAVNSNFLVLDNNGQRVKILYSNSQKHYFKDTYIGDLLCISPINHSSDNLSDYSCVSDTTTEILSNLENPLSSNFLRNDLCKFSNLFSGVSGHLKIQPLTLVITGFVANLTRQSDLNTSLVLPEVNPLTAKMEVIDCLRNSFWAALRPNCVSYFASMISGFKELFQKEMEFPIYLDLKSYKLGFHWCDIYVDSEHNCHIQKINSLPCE

B1: 5' overhang DNA (oligo461/oligo463) (dsDNA)
DNA 1: CACGCTACCGAATTCTGACTTGCTAGGACATCTTTGCCCACGTTGACCC
DNA 2: GGGTCAACGTGGGCAAAG
In the case of B1, the binding result with Dna2;Cdc24-YFH and with Dna2;Cdc24-YFH;RPA was “binds” each time.
